Assay [1] has as its target T1, human GITR-Fc (R&D Systems cat no. 689-GR) (human, UniProt Q9Y5U5 26-161).
T1 construct: Bought protein; also called GITR (Glucocorticoid-induced TNFR-related); not shown: Fc tag
T1 sequence (looked up): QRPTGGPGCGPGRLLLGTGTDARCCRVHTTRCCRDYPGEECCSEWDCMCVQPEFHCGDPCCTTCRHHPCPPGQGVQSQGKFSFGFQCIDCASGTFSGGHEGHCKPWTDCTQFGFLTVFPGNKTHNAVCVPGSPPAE
The assay can be described thus: ELISA, coated GITR-Fc. As for the experimental part:
(§1) Specificity of binding for CD137 over the tumour necrosis factor receptor family members OX40 and GITR (Glucocorticoid-induced TNFR-related) was determined using an ELISA assay. Nunc Maxisorp plates were coated with 1 ug/ml human CD137-Fc recombinant protein (Acro Biosystems 41B-H5258), human GITR-Fc (R&D Systems cat no. 689-GR) human OX40-Fc (R&D Systems cat no. 3388-OX) in sodium carbonate buffer overnight at 4° C. then washed twice with PBS. Non-specific protein interactions were blocked by incubation with 1% (w/v) skimmed milk powder (Marvel®) in PBS/0.1% Tween-20 for 1 hour at room temperature. Plates were washed twice with PBS then VH or antibody control (1 ug/ml) added for 1 hour at room temperature. Following three washes with PBS/0.1% Tween-20 a 1:1000 dilution of anti His-HRP (VH detection) or anti mouse-HRP (positive control mouse monoclonal antibody detection) was added in 1% Marvel/PBS/0.1% Tween-20. The detection antibodies were allowed to bind for 1 hour at room temperature then the plates were washed twice in PBS/0.1% Tween-20 and once in PBS. The ELISA was developed using TMB substrate and the reaction was stopped by the addition of 50 ul 0.5M H₂SO₄ solution. The absorbance at 450 nm was measured using the BMG Pherastar.

Assay [2] concerns the target T2, human OX40-Fc (R&D Systems cat no. 3388-OX) (human, UniProt P43489 29-216).
T2 construct: Bought protein; not shown: Fc tag
T2 sequence (looked up): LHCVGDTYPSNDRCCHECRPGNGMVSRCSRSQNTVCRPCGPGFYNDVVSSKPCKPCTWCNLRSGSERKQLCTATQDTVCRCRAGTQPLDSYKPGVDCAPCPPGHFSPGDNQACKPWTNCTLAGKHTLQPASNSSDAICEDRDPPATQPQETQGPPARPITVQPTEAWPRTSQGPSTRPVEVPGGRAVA
The assay can be described thus: ELISA, coated OX40-Fc. As for the experimental part:
as §1
Background: ELISA stands for enzyme-linked immunosorbent assay.

The target of assay [3] is T3, human CD137 expressed on the surface of CHO cells (human, UniProt Q07011 24-255).
T3 construct: Also used for the Jurkat reporter cells that express human CD137 (functional rows); also called CHO human CD137 cells; CHO huCD137
The assay can be described thus: FMAT, CHO human CD137 cells. As for the experimental part: Binding of His-tagged molecules to CHO human CD137, CHO parent, CHO human PSMA, DU145 PSMA and DU145 parent cells was assessed using Fluorescence Microvolume Assay Technology (FMAT). All reagents were prepared in FMAT assay buffer (pH 7.4) containing PBS, 0.1% Bovine Serum Albumin, 0.05% Sodium Azide. Serially diluted samples were transferred into 384 well black clear-bottomed assay plates (Costar cat. no. 3655) and incubated for a minimum of 2 hours at room temperature with 1.5 nM Anti-His (Millipore cat. no. 05-949), […] Goat Anti-Mouse Alexa Fluor-488 (Jackson ImmunoResearch cat. no. 115-545-071) and 2000 cells/well pre-stained with DRAQ5 (Thermo Scientific cat. no. 62251). Fluorescence emission was then measured on the TTP Mirrorball plate reader in the FL2 (502 nm-537 nm) and FL5 (677-800 nm) channels following excitation at 488 nm and 640 nm. Data was gated on FL5 perimeter and peak intensity and the FL2 median mean fluorescence intensity of the gated data used for determination of VH binding. Monovalent CD137 specific Humabody® VH, bispecific and trispecific molecules with a CD137 binding arm bound to CHO CD137 expressing cells. Monovalent PSMA specific Humabody® VH, bispecific and trispecific molecules with a PSMA binding arm bound to PSMA expressing cells.

The target of assay [4] is T3, human CD137 expressed on the surface of …. The assay can be described thus: FMAT ligand inhibition, CD137 Ligand on CHO human CD137 cells. The essentials:
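Purified Humabody VH was tested in an FMAT format for blocking human CD137 ligand binding to CHO cells expressing human CD137. FL2 median fluorescence was measured and background from excess non-Fc-tagged competitor wells subtracted. Signal was expressed as % of total binding control.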

The target in assay [5] is T4, CD137 on pre-stimulated human CD8+ T cells (human, UniProt Q07011 24-255).
T4 construct: also called pre-stimulated CD8+ cells; primary T cells
The assay can be described thus: flow cytometry, PMA/ionomycin-stimulated human CD8+ T cells, mean of 2-3 donors. As for the experimental part:
Binding to primary T cells was measured using flow cytometry. Peripheral blood mononuclear cells (PBMCs) were isolated from human blood by density gradient centrifugation then CD8+ T cells purified using a negative selection isolation kit according to the manufacturer's protocol (Miltenyi Biotech cat no 130-042-401). T-cells were stimulated PMA/Ionomycin for 48-72 hours in RPMI media supplemented with 10% FBS, 2 mM Glutamine, 1× Pen/Strep. Cells were transferred into 96 well plates, blocked for 10 mins with staining buffer (PBS/1% BSA/0.05% Sodium Azide) then incubated with serially diluted VH in staining buffer (PBS/1% BSA) for 30 mins-1 hour at 4° C. Cells were washed by centrifugation then VH binding detected using Anti His antibody (Millipore 05-949) and Goat Anti Mouse Alexa Fluor-488 (Jackson ImmunoResearch cat no. 115-545-071). A Live Dead near IR stain (Molecular Probes cat no. L10119) was used for discrimination of live cells. After further washing cells were fixed and fluorescence measured by flow cytometry.

Residue numbers refer to the chain shown, from its start.

T3 sequence (Q07011 24-255 limits assumed): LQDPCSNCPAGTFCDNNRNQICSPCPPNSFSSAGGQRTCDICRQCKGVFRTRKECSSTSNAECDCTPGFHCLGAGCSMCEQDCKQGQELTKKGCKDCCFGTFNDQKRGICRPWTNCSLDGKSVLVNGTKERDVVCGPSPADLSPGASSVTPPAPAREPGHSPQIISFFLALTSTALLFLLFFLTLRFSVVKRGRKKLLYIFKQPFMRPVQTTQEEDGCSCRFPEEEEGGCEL
T4 sequence (Q07011 24-255 limits assumed): as above

B1: Humabody VH 1.78 (VHH)
VH: QVQLVESGGGLVQPGGSLRLSCAATGFTLSNYWMNWVRQAPGKGLEWVANINQDGSERYYVDSVKGRFTISRDNAKNSLYLQMSSLRAEDTAVYFCARGGEGYGVDHYGLDVSGQGTTVTVSSHHHHHH
notes: human single VH domain
What is called EC50 is the concentration at which the effect is half-maximal. A low value points to a more potent agent. For orientation: IC50 means the midpoint of a concentration-inhibition curve. A higher IC50 goes with a need for much substance. In the case of B1, the binding result in assay [1] and in assay [2] was “no binding (tested: 1 ug/ml)” in each case. For the same molecule, the concentration giving a half-maximal response (EC50) is 0.32 nM in assay [3] and 0.61 nM in assay [5]. This molecule also gave a 50% inhibitory concentration (IC50) in assay [4] of 1.5 nM.

B2: Humabody VH 1.11 (VHH)
VH: EVQLVESGGGLVQPGGSLRLSCEASGFTFSDYWMNWARQAPGKGLEWVANIKEDGSEKYYVDSVEGRFTISRDNAKNSTYLQMNSLRAEDTAVYYCARGGAGYSMSHYGMDVWGQGTTVTVSSHHHHHH
notes: human single VH domain
On to B2, for which the binding result in assay [1] and in assay [2] was “no binding (tested: 1 ug/ml)” in each case. For the same molecule, the values for the EC50 in assay [3] and in assay [5] were 0.27 nM and 0.89 nM, respectively. The molecule also gave an IC50 in assay [4] of 1.6 nM.

B3: Humabody VH 1.18 (VHH)
VH: EVQLVESGGGLVQPGGSLRLSCAASGFTFSTHWMNWARQAPGKELEWVANINQDGSEKYYVDSVEGRFTISRDNANNSLYLQMNSLRAEDTAVYYCARGGVGYGDSHFGMDVWGLGTTVTVSSHHHHHH
notes: human single VH domain
With B3, the binding result in assay [1] and in assay [2] was “no binding (tested: 1 ug/ml)” in each case. Moreover, the EC50 in assay [3] was found to be 0.31 nM; in assay [5], 1.9 nM. Further, half-maximal inhibition in assay [4] (IC50) was put at 1.2 nM.

B4: Humabody VH 1.1 (VHH)
VH: EVQLVESGGGLVQPGGSLRLSCAASGFTFSSHWMTWFRQAPGKGLEWVAHIKEDGSEKYYEDSVEGRFTVSRDNAKNSVYLQMNSLRAEDTAVYYCARGGDGYSDSHFGVDVWGQGTTVTVSSHHHHHH
notes: human single VH domain; also called single domain antibody 1.1
B4: the binding result in assay [1] and in assay [2] was “no binding (tested: 1 ug/ml)” throughout. For the same molecule, the EC50 in assay [3] and in assay [5] was 0.22 nM throughout. The molecule also came in with an IC50 in assay [4] of 1.1 nM.

B5: Humabody VH 2.1 (VHH)
VH: EVQLVESGGGLVKPGGSLRVSCAASGFTFSDYYMSWFRQAPGKGLEWVSYISGSGDIIDYADSVKGRFTISRDNAKNSLYLQMNNLRAEDTAVYHCAREDSRLTGTTDFDNWGQGTLVTVSSHHHHHH
notes: human single VH domain
On to B5, for which the binding result in assay [1] and in assay [2] was “no binding (tested: 1 ug/ml)” in each case. The EC50 in assay [3] is 0.65 nM; in assay [5], 2.4 nM. The molecule further gave an IC50 in assay [4] of 5.7 nM.

B6: Humabody VH 2.8 (VHH)
VH: B5 VH with V20L, T28A, Y50H, D56T, I57T, N85S, L103M, T104P
notes: human single VH domain
In the case of B6, the binding result in assay [1] and in assay [2] was “no binding (tested: 1 ug/ml)” in each case. In addition, the results for the EC50 in assay [3] and in assay [5] were 0.19 nM and 6.5 nM, respectively. The same molecule displayed an IC50 in assay [4] of 19 nM.

B7: Humabody VH 2.9 (VHH)
VH: B5 VH with V20L, S35T, V48I, I57T, D62E, N85S, L103I, T104A, Q114P
notes: human single VH domain
Turning to B7, the binding result in assay [1] and in assay [2] was “no binding (tested: 1 ug/ml)” in each case. The EC50 in assay [3] was 0.18 nM; in assay [5] it was 0.6 nM. This molecule came in with an IC50 in assay [4] of 2 nM.

B8: Humabody VH 2.14 (VHH)
VH: EVQLVESGGGLVKPGGSLRLSCAASGFTFSDYYMTWFRQAPGKGLEWISYISGSGDTIDYAESVKGRFTISRDNAKNSLYLQMNSLRAEDTAVYYCAREDIRMPGTTDFDHWGQGTLVTVSSHHHHHH
notes: human single VH domain
On to B8, for which the binding result in assay [1] and in assay [2] was “no binding (tested: 1 ug/ml)” each time. Besides, the EC50 is 0.31 nM in assay [3] and 0.61 nM in assay [5]. The molecule also yielded an IC50 in assay [4] of 2 nM.

B9: Humabody VH 1.52 (VHH)
VH: EVQLVESGGGLVQIGGSLRLSCAASGFTFSKYWMIWVRQAPEKGLEWVANINQDGSEKYYVDSVEGRFTISRDNANNSLFLQMNSLRAEDTAVYYCARGGDDYSISHFGMDVSGQGTRVTVSSHHHHHH
notes: human single VH domain
In the case of B9, the binding result in assay [1] and in assay [2] was “no binding (tested: 1 ug/ml)” throughout. The EC50 in assay [3] is 0.37 nM; in assay [5] it was 0.88 nM. Besides, half-maximal inhibition in assay [4] (IC50) required 1.2 nM.

For the origin of these results see patent US20200362047A1 (CRESCENDO BIOLOGICS, published 2020).
